From patent publication US20200317768A1 (published 2020)
Substitutions are numbered along the chain they refer to.

Tests used:
Experiment in all cases: SPR (BIACORE), antibody captured, FcgR analyte
[1] = molecular target: T1, cynomolgus monkey FcγRIIIaS extracellular domain with C-terminal His-tag (cynomolgus monkey, UniProt Q8SPW2 21-206 at identity 1.00))
T1 construct: also called cyno FcgRIIIaS; cynoFcγRIIIaS
T1 chain: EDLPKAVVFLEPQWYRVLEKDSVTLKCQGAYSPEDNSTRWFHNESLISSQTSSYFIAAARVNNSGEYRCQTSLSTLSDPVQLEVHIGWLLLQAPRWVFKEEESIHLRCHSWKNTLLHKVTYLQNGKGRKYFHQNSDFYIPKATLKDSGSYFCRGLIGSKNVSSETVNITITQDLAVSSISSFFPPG
Description: (§1) The kinetic analysis of interactions between these antibodies and FcγR was carried out using BIACORE® T200 or BIACORE® 4000 (GE Healthcare). HBS-EP+ (GE Healthcare) was used as the running buffer, and the measurement temperature was set to 25° C. A chip produced by immobilizing Protein A. Protein A/G or mouse anti-human IgG kappa light chain (BD Biosciences) onto a Series S Sensor Chip CM4 or CM5 (GE Healthcare) by the amine-coupling method was used. […] After the measurement, the antibody captured on the chip was washed off by allowing reaction with 10 mM glycine-HCl, pH1.5 and 25 mM NaOH so that the chip was regenerated and used repeatedly. The sensorgrams obtained as measurement results were analyzed by the 1:1 Langmuir binding model using the BIACORE® Evaluation Software to calculate the binding rate constant ka (L/mol/s) and dissociation rate constant kd (l/s), and the dissociation constant KD (mol/L) was calculated from these values. […] Regarding such interactions, KD values were calculated using the following 1:1 binding model described in BIACORE® T100 Software Handbook BR1006-48 Edition AE.
(§2) The behavior of interacting molecules according to the 1:1 binding model on BIACORE® can be described by Equation 1: Req=C·R max/(KD+C)+RI, wherein, Req is a plot of steady-state binding levels to analyte concentration. C is concentration, RI is bulk refractive index contribution in the sample, and Rmax is analyte binding capacity of the surface. When this equation is rearranged, KD can be expressed as Equation 2: KD=C·Rmax/(Req−RI)−C. KD can be calculated by substituting the values of Rmax, RI, and C into Equation 1 or Equation 2. From the current measurement conditions, RI=0, C=2 μmol/L can be used.

[2] = molecular target: T2, cynomolgus monkey FcγRIIa2 extracellular domain with C-terminal His-tag (cynomolgus monkey)
T2 construct: also called cyno FcgRIIa2; cynoFcγRIIa2
T2 chain: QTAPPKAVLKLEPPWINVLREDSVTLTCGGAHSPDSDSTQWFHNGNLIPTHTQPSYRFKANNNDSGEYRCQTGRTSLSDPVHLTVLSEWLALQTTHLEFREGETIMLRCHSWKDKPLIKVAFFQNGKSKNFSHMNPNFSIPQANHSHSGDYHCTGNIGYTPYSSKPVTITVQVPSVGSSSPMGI
Description: as §1, §2

[3] = molecular target: T3, cynomolgus monkey FcγRIIb extracellular domain with C-terminal His-tag (cynomolgus monkey)
T3 construct: also called cyno FcgRIIb; cynoFcγRIIb
T3 chain: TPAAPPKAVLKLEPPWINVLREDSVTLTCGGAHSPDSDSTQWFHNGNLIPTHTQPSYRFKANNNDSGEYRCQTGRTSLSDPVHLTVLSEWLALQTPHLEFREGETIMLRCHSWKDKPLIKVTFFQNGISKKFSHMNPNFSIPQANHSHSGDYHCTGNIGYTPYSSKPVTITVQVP
Description: as §1, §2

[4] = molecular target: T4, cynomolgus monkey FcγRIIa3 extracellular domain with C-terminal His-tag (cynomolgus monkey)
T4 construct: also called cyno FcgRIIa3; cynoFcγRIIa3
T4 chain: T2 chain with K127I, N130K, H133P, Q142R
Description: as §1, §2

[5] = molecular target: T5, human FcγRIIb extracellular domain with C-terminal His-tag (human, UniProt P31994 43-217)
T5 construct: also called human FcgRIIb
T5 sequence: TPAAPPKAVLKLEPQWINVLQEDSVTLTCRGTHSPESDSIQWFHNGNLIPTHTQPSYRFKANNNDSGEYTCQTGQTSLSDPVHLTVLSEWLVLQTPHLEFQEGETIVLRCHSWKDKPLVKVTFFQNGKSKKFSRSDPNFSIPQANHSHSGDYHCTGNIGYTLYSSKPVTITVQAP
Description: as §1, §2

[6] = molecular target: T6, human FcγRIIaR extracellular domain with C-terminal His-tag (human, UniProt P12318 34-217)
T6 construct: also called human FcgRIIaR; FcγRIIa (type R)
T6 chain: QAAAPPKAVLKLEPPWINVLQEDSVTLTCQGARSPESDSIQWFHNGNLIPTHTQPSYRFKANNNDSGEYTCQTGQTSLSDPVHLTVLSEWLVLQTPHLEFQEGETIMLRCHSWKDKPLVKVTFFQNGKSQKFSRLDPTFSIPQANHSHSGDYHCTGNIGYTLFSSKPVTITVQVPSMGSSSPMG
Description: as §1, §2

[7] = molecular target: T7, human FcγRIIIaV extracellular domain with C-terminal His-tag (human, UniProt P08637 17-208)
T7 construct: also called human FcgRIIIaV
T7 sequence (P08637 17-208 F176V): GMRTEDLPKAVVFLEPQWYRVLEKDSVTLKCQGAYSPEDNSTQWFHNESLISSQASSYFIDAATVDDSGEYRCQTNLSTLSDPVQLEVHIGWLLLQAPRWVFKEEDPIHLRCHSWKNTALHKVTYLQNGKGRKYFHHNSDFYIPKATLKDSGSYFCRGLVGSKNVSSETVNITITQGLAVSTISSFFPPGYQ
Description: as §1, §2

[8] = molecular target: T8, human FcγRIIaH extracellular domain with C-terminal His-tag (human, UniProt P12318 34-217)
T8 construct: also called human FcgRIIaH; FcγRIIa (type H)
T8 sequence: T6 chain with R134H
Description: as §1, §2

B1: MS_M103205H795-SG1/M103202L889-SK1 (antibody, human IgG1, kappa)
heavy: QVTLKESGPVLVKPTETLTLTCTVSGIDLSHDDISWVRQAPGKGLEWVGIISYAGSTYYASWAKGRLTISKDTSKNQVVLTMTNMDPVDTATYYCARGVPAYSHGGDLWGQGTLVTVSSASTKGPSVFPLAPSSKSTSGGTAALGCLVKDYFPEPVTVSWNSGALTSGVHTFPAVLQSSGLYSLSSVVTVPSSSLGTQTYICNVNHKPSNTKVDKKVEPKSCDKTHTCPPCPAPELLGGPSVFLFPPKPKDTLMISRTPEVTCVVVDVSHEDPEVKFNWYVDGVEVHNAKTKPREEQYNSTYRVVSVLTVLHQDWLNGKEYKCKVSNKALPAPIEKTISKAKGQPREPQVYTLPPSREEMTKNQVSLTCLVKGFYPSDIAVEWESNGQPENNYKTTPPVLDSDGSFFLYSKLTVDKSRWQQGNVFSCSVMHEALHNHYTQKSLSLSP
light: DIVMTQSPATLSLSPGERATLSCTSSQSVYHANWLSWFQQKPGQPPKLLIYWASTLAYGVPSRFSGSGSGTDFTLTISSLQPEDAATYYCAGGYGGGRYAFGQGTKVEIKRTVAAPSVFIFPPSDEQLKSGTASVVCLLNNFYPREAKVQWKVDNALQSGNSQESVTEQDSKDSTYSLSSTLTLSKADYEKHKVYACEVTHQGLSSPVTKSFNRGEC
notes: Parent antibody of the Fc variants; also called MS1032LO06-SG1
[1]
  Kd: 360 nM
[2]
  Kd: 5100 nM
[3]
  Kd: 1800 nM
[4]
  Kd: 17000 nM
[5]
  Kd: 4600 nM
[6]
  Kd: 1100 nM
[7]
  Kd: 810 nM
[8]
  Kd: 690 nM
